# Experimental data published in patent US9307782B2, “Mannanase produced from Cellulosimicrobium sp. strain HY-13” (Korea Research Institute of Bioscience and Biotechnology, priority 2011, dated 2016).
# Like-named read-outs stand apart in the source and are kept apart here. Marks after values point to notes of the source that are not given here.
# B1: Mannanase: Wild type β-1,4-mannanase of Bacillus subtilis WY34 (protein)
# chain: MRRLFAIVLGAVLALLAVPALAQGASVASDGFSVQDGRIYDANGNRFVPVGVNHAHAWYPSQTQSFADIRAAGANTVRVVLSGGRYGTSSAADVSAVVERCKQNQLVCILENHDTTGYGEDGSARSLASAAQYWTSIASVLRGQERYVMINIGNEPFGNSGFQSWTTDTIAAIRTLRAAGLDHTLVVDAPNWGQDWSFTMRDNAPTVAAADGNVVFSVHMYGVFDTGAEVRAYLDSFTSRGLPIMVGEFGDNHSDGNPDEATIMSYTRSQGIGMLGWSWSGNGGGVEYLDMVNGFSASSLTPWGQRFVHGADGLRARNAPAASVYGGDGGDGDGGAGTAPNGYPYCASASSDPDGDGWGWESSASCVVRGSSADTGSGGGSGSGSTAPNGYPYCASASSDPDGDGWGWESSASCVVRGSSADR
# modifications: cellulosimicrobium
# notes: Wild type β-1,4-mannanase of Bacillus subtilis WY34
# Tests used:
# [1] = Specific activity of mannanase (substrate specificity); assay type: biochemical
# Description: (§1) The activity of β-1,4-mannanase was investigated by measuring the reduced amount of glucose isolated from locust bean gum using 3,5-dinitrosalicylic acid (DNS). At this time, D-mannose was used as a standard material. 0.5 Ml of a standard mixture composed of 0.5% locust bean gum was mixed with 0.05 Ml of an enzyme aqueous solution, followed by inducing biodegradation reaction in 50 mM sodium phosphate buffer (pH 6.0) at 50° C. for 15 minutes. The activity of the recombinated mannanase (1 IU) to the mannan substrate was defined as the amount of the protein necessary for the secretion of 1 μmol reducing sugar under the standard analysis condition. Chromogenic PNP-sugar derivative was used to measure another degrading activity of the said recombinated enzyme. The enzyme activity of the recombinated mannanase to the chromogenic substrate was measured under the same conditions as set for the analysis of β-1,4-mannanase activity. The activity of the recombinated mannanase (1 IU) to the PNP-sugar derivative was defined as the amount of the protein necessary for the production of 1 μmol PNP under the standard analysis condition.
# [2] = Analysis of degradation product (HPLC, LC-MS/MS); assay type: biochemical; conditions: substrate Ivory nut mannan; LC area %
# Description: […] HPLC (high performance liquid chromatography) was performed by using Finnigan Surveyor™ Modular HPLC systems (Thermo Electron Co.) equipped with Asahipak NH2P-50 2D column (5 μm, 2.0×150 mm, Shodex) ran by Xcalibur software (version 1.3 SP2, Thermo Electron Co.). Elution buffer A (0.05% pomalus acid/sterilized water) and elution buffer B (acetonitrile and methanol (7:3) containing 0.05% pomalus acid) were used as moving phases. LC-MS/MS (liquid chromatography/tandem mass spectrometry) was performed by using Finnigan LCQ Advantage MAX ion trap mass spectrometer (Thermo Electron Co.).
# [3] = Analysis of degradation product (HPLC, LC-MS/MS); assay type: biochemical
# Description: Mannooligomer (M2˜M5, 1 mg/100 μl each) and locust bean gum (1.4 mg/100 μl) were reacted in 50 mM sodium phosphate buffer (pH 6.0) containing 1 μg of the recombinant mannanase at 30° C. for 12 hours, followed by investigation of the hydrolysate. HPLC (high performance liquid chromatography) was performed by using Finnigan Surveyor™ Modular HPLC systems (Thermo Electron Co.) equipped with Asahipak NH2P-50 2D column (5 μm, 2.0×150 mm, Shodex) ran by Xcalibur software (version 1.3 SP2, Thermo Electron Co.). Elution buffer A (0.05% pomalus acid/sterilized water) and elution buffer B (acetonitrile and methanol (7:3) containing 0.05% pomalus acid) were used as moving phases. LC-MS/MS (liquid chromatography/tandem mass spectrometry) was performed by using Finnigan LCQ Advantage MAX ion trap mass spectrometer (Thermo Electron Co.).
# [4] = Specific activity of mannanase (substrate specificity); assay type: biochemical; conditions: substrate Birchwood xylan
# Text: as §1, with “0.5 Ml of a standard mixture composed of 0.5% locust bean gum was mixed with 0.05 Ml of an enzyme aqueous solution, followed by inducing biodegradation reaction in 50 mM sodium phosphate buffer (pH 6.0) at 50° C. for 15 minutes.” left out, “Chromogenic PNP-sugar derivative was used to measure another degrading activity of the said recombinated enzyme.” left out
# [5] = toward locust bean gum; comparison enzymes of other strains; cited from earlier work
# [6] = Specific activity of mannanase (DNS reducing sugar assay); assay type: biochemical; conditions: for Specific activity: pH 6.0, 50° C., 15 minutes
# Description: To compare the mannanase activity to different matrixes, locust bean gum, ivory nut mannan and guar gum were used as matrixes and the activity of the purified mannanase to those matrixes were investigated.
# as §1
# [7] = Binding of mannanase to insoluble polymer; conditions: enzyme 5.0 IU/Ml, on ice two hours, pH 6.0
# Description: The mannanase of the present invention contains two family 10 CBMs at C-terminal, which plays an important role in enzyme-substrate interaction. As the mannanase was expected to bind to various carbohydrate polymers, hydrophobic materials having microstructures including polysaccharide, poly(3HB) granules, and lignin were used as substrates to investigate enzyme-substrate binding activity of the mannanase.
# Before analyzing the binding activity, insoluble substrates were washed with 50 mM sodium phosphate buffer (pH 6.0) 5 times, followed by measuring the binding capacity of the enzyme to the hydrophobic materials. Particularly, the enzyme diluted at the concentration of 5.0 IU/Ml was put on ice for two hours with the equal volume of a substrate polymer. The mixture was stirred every 5 minute. The mixture was centrifuged at 12,000×g to obtain supernatant. Then, the activity of β-1,4-mannanase thereof was measured.
# [8] = assay type: physicochemical
# Description: To determine the optimum reaction temperature of the mannanase, mannanase activity was measured at different temperatures of 37, 40, 45, 50, 55, 60, 65, and 70° C. To measure thermo-stability, the mannanase was heat-treated at the said temperatures for 15, 30, and 60 minutes and then the remained activity was measured. To determine the optimum reaction pH, the mannanase was treated respectively with 50 mM of sodium citrate buffer (pH 4.0˜5.5), phosphate buffer (pH 5.5˜7.5), Tris-HCl buffer (pH 7.5˜9.0), and glycine-NaOH buffer (pH 9.0˜10.0) in pH range of 4.0˜10.0 at 55° C. for 15 minutes, followed by measurement of enzyme reaction.
# [9] = substrate Locust bean gum, 1 μg recombinant mannanase, pH 6.0, 30° C., 12 hours, LC area %
molecule,measurement,setting,value
B1,degradation of carbohydrate,[1]; substrate carboxymethylcellulose,not degraded
same,degradation of carbohydrate,[1]; substrate pectin,not degraded
same,degradation of carbohydrate,[1]; substrate soluble starch,not degraded
same,Composition (%) of products formed by hydrolysis reaction: M4,[2],25.2%
same,Composition (%) of products formed by hydrolysis reaction: M1,[3]; [9],1.1%
same,Composition (%) of products formed by hydrolysis reaction: M2,[3]; [9],6.4%
same,Composition (%) of products formed by hydrolysis reaction: M3,[3]; [9],1.5%
same,Composition (%) of products formed by hydrolysis reaction: M4,[3]; [9],7.4%
same,Composition (%) of products formed by hydrolysis reaction: M5,[3]; [9],44.2%
same,degradation of substrate,[3]; substrate M2 (printed N2),not degraded
same,hydrolysis products: mannooligomer (at least M6),"[3]; substrate locust bean gum, sum of M6 and larger",39.4%
same,degradation of carbohydrate,[4],not degraded
same,Specific activity,[5],"8,302^d IU/mg"
same,specific activity to ivory nut mannan relative to guar gum,[6]; ratio ivory nut mannan / guar gum,15.2 fold
same,specific activity to ivory nut mannan relative to locust bean gum,[6]; ratio ivory nut mannan / locust bean gum,1.7 fold
same,Specific activity,[6]; toward guar gum,967 IU/mg
same,Specific activity,[6]; toward insoluble ivory nut mannan,"14,711 IU/mg"
same,Specific activity,[6]; toward locust bean gum,"8,498 IU/mg"
same,binding to insoluble polymer,[7]; Avicel,strongly conjugated
same,binding to insoluble polymer,[7]; chitin,strongly conjugated
same,binding to insoluble polymer,[7]; chitosan,strongly conjugated
same,binding to insoluble polymer,[7]; curdlan,not conjugated
same,binding to insoluble polymer,[7]; insoluble ivory nut mannan,strongly conjugated
same,binding to insoluble polymer,[7]; insoluble oat spelt xylan,not conjugated
same,binding to insoluble polymer,[7]; lignin,not conjugated
same,binding to insoluble polymer,[7]; poly(3HB) granules,not conjugated
same,Half life of the enzyme,[8],15 min
same,Thermolability,[8]; exposed on the temperature of 55° C.,rapidly increased
